Measurements published in the domain aggregation screens of Martell et al. (2025).

Assay: soluble fraction after stress (log2 fold change); higher = more stays soluble; pooled small domains, quantitative proteomics
Details: stress: pH 4
In short: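 Custom libraries of small protein domains were pooled and exposed to pH 4. High-throughput quantitative proteomics then measured the log2 fold change in the amount of each domain still soluble, with higher values meaning more stayed soluble. This soluble-fraction fold change stands for aggregation propensity.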

Sequence	soluble fraction (log2)
HMGLQLTPVRRRVLEILLHEHRALGAYDILDKLRSEGLGSQPPVAYRALDFLVTHGFAHKIERLNAF	-0.0897
HMGLQRLTVSPEDAGVRIDKYLAEQLPDITRSYLQKLLKDGSVQMNGKPVKASTKTAVGAVIALTIPEP	-0.157
HMGLSAEAARMAIQDAGLSKEDFAQKLGIKKVERVVEWEAGTSKPTFVQAQKIANATNIPFGYLFLVNPPK	0.0939
HMGLTRRAQLEVADANLKRLYPGMHQSWVTAIAEYLHSSYWRYINSLEPEYAASIQRVYEQHIDAM	-0.0592
HMGLTYEQILTDVQRFVTQNHADTLSNEGNPEEARKLLKDYILQYVQNRSYHVDGQTTEELVDSLYED	-1.13
HMGLVDSLEPLLRRVYEALPQRRSMTTERLAVAAGLDEESVKVALARLQLSAFVGVDERGWHRSL	-0.0455
HMGLVLIDSYNDIGSAKLITNKIRNLGLIFEENENKINVFAGPFEKNDINLKIDFLIRNGYTNAQLY	-1.92
HMGLVQQSAQKSDDAAKLMAANNLNAAQSKYQLPDEAEKDFFTFAFERGYAVEDFVDAGLVDKIMADFSA	-0.44
HMGLVVIGTEAGYPAEKAGILAGDRIRKLNGAAVPDYDTFLTALAARKGEPSAIELERDGKTLEVTVSPL	-0.21
HMGLWWTEAERELVKTTIEQLYKDTNIAEPVDSKNLRASIPALKAMRTGLSAENQARVDTLLGALQV	-0.915
HMGMAGILDSARMASFIQEKLGYGGGQIRASVMGGHGDDMVPLPRYSTVAGVPLSDVLTQNEIDEMFAQ	-0.259
HMGMDALIGRRVFVSEEILPGDTGGRMAVDGDSWRAISVGTASNIPAGTEVRIRGHQSLVLEVEP	-0.629
HMGMEENLLKERKQILMDIMKSKEYQPMKVKELAMVLNVPKEDREELRYVLNELMNEGKIVESKKGKFSIA	0.0605
HMGMESFWNRVANLLNTSTVVELAQILDVKRSTLSSWIHSDRRPPMEVLLKITRLTGVDIHRLE	-0.576
HMGMETQLSPKEKSIYTIIQNRPNIQSGEVSEKLAIPLPTVKRILSDLINKGLIEKQGSGRNVSYTI	0.241
HMGMFNENLRFLRQKRQMSQQAFASILGIPRTTYSEYEKGNTEPNLKLLIRLSELLDVSLDNLISDDLTHN	-0.642
HMGMKTSQKLARQREIVRLIRAQTIRTQAELADALRERAFPVSQPTLSKDIAELGLIKVPLPDSGYRYQLP	-0.105
HMGMNKEHFIIELKIYLKALNPKDQAIILAKYKALFDARVAEGETEEQVAKSLGKPRVIAEEILKEQGIE	≥ 0.43
HMGMSMNEFLNNRLEQLAVEAVDKSSLGEEIFFYAEPATINLFKDAVDEDEYKVVFPVLKSIIEVEQKLSR	-1.69
HMGMTAPIPGVVLKVSVLPGQKVERGDELLTIEAMKMFNVMRSPSSGTIATVHIKDGDRVVQGQPLVTFA	0.113
HMGMTTSILDDVIGMGPKRKKALLKAFGSFGALRNATLEEIKQTHTVPEQVAEDVYAVLVQYNSKSE	-0.171
HMGMVKLNEEYLEKVKKHRKELHITQLQISKKLGWSLSRYQRFESGFYKEIEDDAPKKIKEEFGIDYSLL	-0.231
HMGNGALLTLTVKERQVIQLVAEGKSNKQIARDLNVTPETIKSHMKNIFAKLKVDNRAQAAVMVQQ	0.0874

Sequence	soluble fraction (log2)
HMGNGDTNERIATLMQILAKQESIINQYGLENPVVSPQMYVRTLKKVVELSGFKDASSYFADIPDGWKA	0.0699
HMGNIADARRDASYVFLIGEWAKSSNLTEKKLAGLIQSNHLDIKYGITVTDVIADIRKYKNDPTYNPF	0.312
HMGNIKVPSVMGMTLEGAEKVAKDNGAVIEVLEYKESTEEDGTIIEQSPKADMTVATLEKISVVISGK	0.0995
HMGNIYKALLGKLEKQLGFLPEGTKLPPEQELAEKFGVSKPTLRRALAELAVRGIIVKQNGIGSVVAGS	≥ 0.43
HMGNKKLVLKLSKKLIKIPSFLNIYSVKLTKNGRELEINLDKSQNEAIDIINLIKKNNISFLEFDIKKR	0.015
HMGNLIIFYDAQTGSAPLLKAVKTSGATLVYEYKNLHGIAIRPSSKTSIEDAIAYFKKVNGVLSVE	0.0783
HMGNPSGLPLPRFASTRSEPINVRVGPGQKYDIAWTYLKSGIPVEIIQEFDTWRKIRDFDGAEGWIHQNLL	-0.398
HMGNSRNDQDLQTQIIKILAEGPASSRTLIETLTIEDEAALLKTLKRLLMNKKISLTPSNLYKL	-0.66
HMGPAAGVVEKYNLAHLSTGEMIRKEIAEGSDFGKMAAGIINKGELLSDEFVVALIENSIEHHKNVDGFLF	-0.22
HMGPAVGAIRVEGNKRVEPETVRTYLTFNVGDPYDLAKVDESLKALFATGLFQDVRIRREGNTVVIVVVEN	-1.07
HMGPAYQTQRQEAFAALSEIAAKNPQLMQVAGDLVFRAADFPMADELADRLAKTLPPQLQDKKGQP	-0.313
HMGPEISEDAKVVFDRLKNHDEILLNNFKSEFDLSNKKWDKIIKELRGNDLISIIKSEDGNLFIKP	-0.293
HMGPELGENEKLIFDIIKKESKMELGILKAQVDLSNKKWDKALKGLATHGLTKVNKTDDGLFIELI	-0.942
HMGPIITKTYNLSYATARDVNDIIKSKKSARGDIVIDTRTNSLIVSDVQEKIDLIDEIVATL	-1.37
HMGPLSDRSVADWLLRLGLADTANNRLLLQVMHAAGLPLERTAVRAMRETAAGRPEGTDAREWLQAAAAAQ	-0.326
HMGPNSVPDLRGKSLRQAMKMVNDLELKAIFEGEGIVVGQVPAPGKPVPETKILKITLSLEPY	0.0736
HMGPPAVGSKLQDARKAQQLSLDELSKRAGVSKSMLSEVERNQANPTVGVLWRLATALGISLTDLLG	-0.549
HMGPPLISLDDGLAKGFGVGVGDTLTINILGRRITATIASLREIDWQSLRFDFAVVLSPGVLEGA	0.063
HMGPRKAGSEATRQKILDAAEILFAERGFHSVSVRDITTEAGVDVALINYHFGSKQLLFETVFMRR	-0.472
HMGPRPLPAEFTHPSLRALLALGTTRGGVTSADVKTALEAASVPAGRRAAVLRALDDNGIEVHTEP	0.107
HMGPSEVTLDNFVGKNYTDVVNDTSYQFTFKKEEKSDQTHAAGIIIAQSPKKGIKVKSNSTVTLTVSTG	0.216
HMGPVDFYQMFISELQHLAEKPVTVDALIESTQLHKSQLTEWLKRAVDDGVVKKLNRPARFQVKNK	0.136
HMGPVRDLGLLESAAHRPTTALWGRDVYATIEKKAAALLDSLVRDRPLADGNKRLGWLAALV	0.0116

Sequence	soluble fraction (log2)
HMGPYGAGSAAPAEDGSGPEGWTVKGNAKSMLYHTEGSPYYGRTNADVWFRDEESAEAAGFRRWDRK	0.033
HMGQAELPYSEFLREVNNGQVKSVIIEGSEITGFYKTSGTSFNVIAPDDPKLVERLMAQGVEVRAQPA	0.239
HMGQDLEAFLLKAVGQLDQGDGVTLDALLKVAVSNGGFVREVAEAKLDDMLDAGTLDEPRFGWFRVGAT	-1.68
HMGQDLSYYIKIVQNQQPVDPLTGEPKVLDYGEVIRQAQILQMLDTGDLDRDKAIGQLSMKDAL	-0.26
HMGQELRFVIQDHEAGIRLDHYLTQQVEGYSRSHLRKLMDQGLITVDGSYRKAGYRLNVGDVIHVVIPPTR	-0.0619
HMGQELTPVERTALDIAARDGKVSTRILAQEAGIGLRTASKTLAALAERGLLTWHGTSRRDPQQHYTS	0.154
HMGQISDESVLKEMVVQLIADNPKEVASYLGGKETLLQWFMGQVARATKGKADPQAVKQLLLDEFEKLK	-0.504
HMGQKETIVDLLKTNGTMTQLALAEAIYGDKNHGPNIYSVLMGRVNSGAVLRTGSQPAYYSLSG	0.22
HMGQKMLTIELQEKVNKMPDNLASYDLKLSADGMSLIYKYSLKSERTGITALLQELKNAGLVMRDLKTEQ	-0.302
HMGQLSDREALTVLAREALVELPRAAGDYRNGRTAALQSLVGRVMRKTAGRGNPALLQEIFRSLL	0.00453
HMGQLVVHQIKGEASRLDKFLVVNIPKYSRSVWREMINNGSVQVNGRVVKPHLLVKEGDIITWSS	0.0267
HMGQLVYPAGVYDVNKSYITDSNSAPYVLDKTDNNYYVLNTQMTWKGTEQDNKTPSQSYEESGGSVWLLFD	-0.59
HMGQPAVSSRDVAEQFGKEHRNVIQSIKNLIAENSALTFMFIEDTYTAGTGKKYPMYYMNRDGFTLLA	-0.15
HMGQPGNWTSYVFKNSDTEPAKPTSSGPIPSGWNDAPTGVGIWWMSKATIDASTGKAGSWSTPIRVTGED	0.0155
HMGQSKNERMLELVELLNKASRSYYQDAQEIMSNYEYDRLYDELQNLEKELGITLSNSPTVN	-1.3
HMGQVSDETGLARVVDALLAAHPDEVAKYRAGKTSLLGWFMGQVMKETRGQANPDLARALVLERLE	-0.269
HMGQYSTTLDKIENSLFGFTYSNEAENTRINRIENKVYGKTSTSQTSTRIAKLKKDLSVDEMG	-0.00491
HMGREVVVPNLAGIEKEVALDLLKKNRLGGMITGTRFSSDFPAGQVIQQMPEAGSRVKVGKQVKLVLSEG	0.334
HMGRGSEDEQMRGLAVILAEQKQIMQTLGVENEVVKPEQYINTLKRMAELNGFKDTDQFFSIPQ	-0.587
HMGRHSPLSIEQKEQLKTEIVALQQQRGGGRVTAVNIAELIQQKFNVVYNPNSLYKLLKQIGMSWV	-0.311
HMGRKEIIVPNLLGKYAIEAGTILKNAGLLEGQAREENSDTYPAGQIMDQFPKANTPANENDKVDYVVSI	-0.202
HMGRLEVDLVVPYDKYEAMNVIRAEGRILKEDHQGDGAHLKIQINETALWKLKRMLGEGYGQ	-0.255
HMGRLPMNIVRAIVEHLDRHASYSEINRATGASKGFISKVAAAVEAASLTPEKFLLLNDEDIQNRITPGR	-0.133
